Data reported in PMC2953525, “Subtle Alterations in PCNA-Partner Interactions Severely Impair DNA Replication and Repair” (PLoS Biology, 2010).
Where a chain is given by its changes, count along the chain named.

B1: pol30-Rad27E6: PCNA mutant evolved for Rad27, IDCL sequence DGDYDILKIREL (protein)
chain: MLEAKFEEASLFKRIIDGFKDCVQLVNFQCKEDGIIAQAVDDSRVLLVSLEIGVEAFQEYRCDHPVTLGMDLTSLSKILRCGNNTDTLTLIADNTPDSIILLFEDTKKDRIAEYSLKLMDGDYDILKIRELQYDSTLSLPSSEFSKIVRDLSQLSDSINIMITKETIKFVADGDIGSGSVIIKPFVDMEHPETSIKLEMDQPVDLTFGAKYLLDIIKGSSLSDRVGIRLSSEAPALFQFDLKSGFLQFFLAPKFNDEE
modifications: left off: Gal4 activation domain, end not stated, kept
B2: pol30-Pol32E5: PCNA mutant evolved for Pol32, IDCL sequence DADNDFLKISEL (protein)
chain: B1 chain with G121A, Y123N, I125F, R129S
modifications: left off: Gal4 activation domain, end not stated, kept

Assays:
Msh6 = experiment: Yeast two hybrid (Y2H) analysis of PCNA-partner interaction; type: binding; settings: YRG2 strain, growth on selective agar plates lacking histidine; growth similar to WT PCNA denoted as 1
Method: (§1) For the Y2H assay, we used the YRG2 host strain, shown to be highly efficient in coupling the strength of protein-protein interactions with growth on media lacking histidine. Selected PCNA mutants were characterized for their ability to bind each of 12 main PCNA partners to obtain specificity profiles (Table 1, Table S1, and Figures S4–S5). […] However, in some cases a strong trade-off between the bindings of different partners was observed.
(§2) Y2H analysis was performed using the Yeast Two Hybrid Phagemid vector kit (Stratagene), following the manufacturer's instructions. The pAD-PCNA-WT/mutant plasmids were used as bait while plasmids encoding 12 different PCNA partners (Table 1 and Table S1) were used as prey. The YRG2 host strain (Stratagene) was cotransformed with pAD-PCNA WT/mutant and pBD-partner plasmids in all possible combinations using the LiAC method. Single transformants were grown in liquid SC-Leu-Trp to O.D600 10, washed twice with DDW, and diluted to an initial OD600 of 0.3. A series of 10-fold serial dilutions was then spotted onto selective SC-Leu-Trp-His plates and incubated at 30°C for 3 d. For quantitative Y2H, the generation time of the indicated mutants and their respective partners were calculated from their growth curves in liquid SC-Leu-Trp-His media. Cells were grown overnight in SC-Leu-Trp, washed twice with ddH2O, and diluted by a factor of 1∶50 into 10 ml of pre-warmed SC-Leu-Trp-His. O.D600 measurements of the cultures were taken at the indicated time; the generation time (τ) was calculated from the growth curves according to the equation ODt = OD0×2^t/τ. The generation time calculated for each culture is an average of at least 3 independent experiments.

Pol32 = experiment: as above; type: binding
Method: as §1, §2

Rad27 = experiment: as above; type: binding
Method: as §1, §2

Rad30 = experiment: as above; type: binding; settings: YRG2 strain, growth on selective agar plates lacking histidine; growth similar to WT PCNA denoted as 1
Method: as §1, §2

Ung1 = experiment: as above; type: binding; settings: YRG2 strain, growth on selective agar plates lacking histidine; growth similar to WT PCNA denoted as 1
Method: as §1, §2

CAN1 gene = experiment: Spontaneous mutation rate, CAN1 reporter assay, fluctuation analysis; type: cell-based, yeast; settings: for Spontaneous Mutation Rate Can^R (Fold Increase): Table 1, compared to the WT POL30 strain
Description: It was previously shown that PCNA contains another site of regulation (i.e. K164) that is modulated by ubiquitination or SUMOylation (Figure 1B) and that is crucial for the recruitment of TLS polymerases,[37]. To test whether the K164 regulatory site is active in the PCNA mutant strains, we examined the spontaneous mutation rate in these strains (Table 1). Increase in spontaneous mutation rate can indicate the recruitment of TLS polymerases to PCNA through K164 ubiquitination,[37]. Alternatively, these mutants can indirectly affect the spontaneous mutation rate by reducing DNA replication processivity and causing replication fork stalling, thereby leading to TLS recruitment. These mutants can also indirectly alter Pol-δ or Pol-ε proofreading leading to TLS recruitment. We measured the spontaneous mutation rate using the CAN1 reporter assay by monitoring the ability of the PCNA mutant strains to grow in the presence of canavanine, a toxic analogue of arginine. […] To examine whether Polζ, the major TLS polymerase,[37], is recruited in vivo to PCNA mutants showing increased affinity for Rad27 and Pol32 (pol30-Rad27E6 and pol30-Pol32E5, Table 1) upon K164 ubiquitination, we measured the spontaneous mutation rates of these mutant strains on the background of either mutated rev3 encoding the catalytic subunit of Polζ or mutated rad18 encoding the K164 ubiquitin ligase or K164R mutation (Figure 7, Table 2).
(§3) Novel haploids containing PCNA mutants were generated using the plasmid shuffling method. Briefly, a pol30::KanMX magic marker heterozygote diploid strain BY4743 (Open Biosystem) was transformed with plasmid pRS316-POL30. Following dissection of the diploid, a haploid containing the CAN+ gene and plasmid pRS316-POL30 as a sole source of PCNA was generated. This host strain was transformed with selected pRS315-pol30 mutants, plated on SC-Ura-Leu plates, followed by replica plating to SC-Leu+5FOA plates. Haploids, containing PCNA mutants as a sole source, were further verified by plating on either SC-Leu or SC-Ura plates. For testing selected PCNA mutants, a haploid containing rad27::HYG, rad30::HYG, pol32::HYG, msh6::HYG, or ung1::HYG were generated using plasmid pAG32 by conventional genetic approaches. Growth of the PCNA mutant strains in the presence of 120 mM HU (Toronto Research Chemicals) or 0.02% MMS (Sigma) was performed as described. To examine the effects of partner overexpression on pol30 mutant strains, these strains were transformed with various plasmids containing GST-tagged PCNA partner encoding genes under the control of a GAL1/10 inducible promoter, as previously described. Overnight cultures were plated in serial dilutions on SC-Ura containing either glucose or galactose with or without DNA-damaging agents, as described above.
The mutation rates for the different pol30 mutant strains described in this study were determined by fluctuation test analysis using the Lea and Coulson method,[48]. The different strains were plated as single colonies on SC-Leu plates and allowed to grow for 3 d at 30°C. At least 25 single colonies from each strain were excised from the plate and resuspended in 1 ml of sterile water to an O.D600 of 0.7. Appropriate dilutions of the cells were then plated on SC-Leu and SC-Leu-Arg+canavanine ([…]) to obtain the number of viable cells (Nt) and the number of canavanine-resistant cells (r), respectively. Using the Lea and Coulson method, the number of mutations (m) per colony was derived from the number of canavanine resistant-colonies (r) across parallel cultures, using the following equation: […]. The m values were then used to calculate the mutation rate, M, using the following equation: M = m/Nt, where Nt is the average number of viable cells per plating. The different M values were sorted to obtain the median. […]

yeast strains = experiment: Growth sensitivity of PCNA mutant strains to MMS and HU; type: cell-based; settings: for effect of overexpression of Rad27, Rad30, Pol32, and Msh6 on growth sensitivity to DNA damaging agents: Figure S9, GAL1/10 inducible GST-tagged partners
Description: Next, we examined the sensitivity of strains containing single deletions of each of the five different partners on a WT PCNA background. […] We first examined whether the rad27 deletion can suppress the lethality of a strain containing the pol30-Rad27L1 or pol30-Rad27L2 mutants (Figure 6A). […] In addition, we examined whether rad30 deletion, ung1 deletion, and msh6 deletion can suppress the phenotypes of the pol30 mutants with increased affinity to Rad30, Ung1, and Msh6, respectively (Figure 6B–D). […] However, since the suppression of the strain phenotypes was not complete, additional factors, such as minor effects of the mutations on other PCNA-partner interactions, may play a partial role in the sensitivity phenotype of the examined pol30 mutants. […] We also examined whether overexpression of different partners can suppress the growth sensitivity of the pol30 mutants, however no suppression was observed (Figure S9).
as §3

[1] = YRG2 strain, growth on selective agar plates lacking histidine, growth similar to WT PCNA denoted as 1
[2] = footnote c: generation time in liquid selective media lacking histidine relative to cells expressing WT PCNA, average of at least 3 independent experiments

Molecule	Binding of PCNA Mutants to Target Partners: Msh6 (Y2H) (Msh6)	Binding of PCNA Mutants to Target Partners: Pol32 (Y2H) (Pol32; [1])	Binding of PCNA Mutants to Target Partners: Rad27, fold increase or decrease (quantitative Y2H) (Rad27; [2])	Binding of PCNA Mutants to Target Partners: Rad30 (Y2H) (Rad30)	Binding of PCNA Mutants to Target Partners: Ung1 (Y2H) (Ung1)	Spontaneous Mutation Rate Can^R (Fold Increase) (CAN1 gene)	Mutation Rate (CAN1 locus) (CAN1 gene; Table 2, median, brackets = 95% confidence interval, at least 25 independent determinations)	effect of rad27 deletion on growth sensitivity of the mutant strain (yeast strains; Figure S8, parent vs rad27-deleted strains)	effect of overexpression of Rad27, Rad30, Pol32, and Msh6 on growth sensitivity to DNA damaging agents (yeast strains)	Binding of PCNA Mutants to Target Partners: Pol32, fold increase or decrease (quantitative Y2H) (Pol32; [2])	Binding of PCNA Mutants to Target Partners: Rad27 (Y2H) (Rad27; [1])	Fold Increase Relative to WT (mutation rate, CAN1 locus) (CAN1 gene; Table 2)
B1	1	1	1.5 ^c fold	1	1	8 fold	1.2×10^−6 [8.0, 13.9]	only weak effect	did not reduce the growth sensitivity			
B2	1			1	1	13.3 fold			did not reduce the growth sensitivity	1.5 ^c fold	1	13 fold
